Substrate in the data set: O=c1ccn([C@@H]2O[C@H](COP(=O)(O)O)[C@@H](O)[C@H]2O)c(=O)[nH]1
The data set can be described thus: continuous phosphate release, EnzChek (MESG/purine nucleoside phosphorylase), A360, Michaelis-Menten fit. Type of data set: biochemical, Escherichia coli. Conditions: no GlnK, no effectors, 20 mM Hepes pH 7.4, 50 mM KCl, 5 mM MgCl2, 2 mM NAG, 2 mM DTT, 25 °C.

B1: UmpH (Escherichia coli K-12) (protein)
chain: MTIKNVICDIDGVLMHDNVAVPGAAEFLHGIMDKGLPLVLLTNYPSQTGQDLANRFATAGVDVPDSVFYTSAMATADFLRRQEGKKAYVVGEGALIHELYKAGFTITDVNPDFVIVGETRSYNWDMMHKAAYFVANGARFIATNPDTHGRGFYPACGALCAGIEKISGRKPFYVGKPSPWIIRAALNKMQAHSEETVIVGDNLRTDILAGFQAGLETILVLSGVSSLDDIDSMPFRPSWIYPSVAEIDVI
notes: untagged; synthetic umpH gene in pET29a, expressed in E. coli BL21 (λDE3); band approximately 30 kDa
As usually defined, the Km is the concentration of substrate that gives half-maximal velocity. Regarding B1, the Km is 278 ± 27 µM.

The values above are taken from publication PMC11617674, “The activity of the ribonucleotide monophosphatase UmpH is controlled by interaction with the GlnK signaling protein in Escherichia coli” (The Journal of Biological Chemistry, 2024).
